# Reference: patent US20230322953A1 (HARBOUR BIOMED SHANGHAI, published 2023)
# Values joined by “and” are separate entries in the source; they are usually repeats but may differ in a detail not shown here. Equal values may be shown once.
# B1: PR002309 (bispecific antibody, human IgG1, lambda, L234A L235A)
# light: QAVVTQEPSLTVSPGGTVTLTCRSSTGAVTTSNYANWVQQKPGQAPRGLIGGTNKRAPWTPARFSGSLLGDKAALTLLGAQPEDEAEYFCALWYSNLWVFGGGTKLTVLGQPKAAPSVTLFPPSSEELQANKATLVCLISDFYPGAVTVAWKADSSPVKAGVETTTPSKQSNNKYAASSYLSLTPEQWKSHRSYSCQVTHEGSTVEKTVAPTECS
# heavy: EVQLLESGGGLVQPGGSLRLSCAASGFTFSTYAMNWVRQAPGKGLEWVSRIRSKYNNYATYYADSVKDRFTISRDDSKSTLYLQMNSLRAEDTAVYYCVRHGNFGNSYVSWFAYWGQGTLVTVSSASTKGPSVFPLAPSSKSTSGGTAALGCLVKDYFPEPVTVSWNSGALTSGVHTFPAVLQSSGLYSLSSVVTVPSSSLGTQTYICNVNHKPSNTKVDKKVEPKSCDKTHTCPPCPAPEAAGGPSVFLFPPKPKDTLMISRTPEVTCVVVDVSHEDPEVKFNWYVDGVEVHNAKTKPREEQYNSTYRVVSVLTVLHQDWLNGKEYKCKVSNKALGAPIEKTISKAKGQPREPQVYTLPPCREEMTKNQVSLWCLVKGFYPSDIAVEWESNGQPENNYKTTPPVLDSDGSFFLYSKLTVDKSRWQQGNVFSCSVMHEALHNHYTQKSLSLSPGK
# chain: EVQLVETGGGLIQPGGSLRLSCAASGFTVSDNYMTWVRQAPGKGLEWVSVIFSGGNTYYADSVKGRFTISRDNAKNTLYLQMNSLRAEDTALYYCARRNYDDTRGTDVFDIWGQGTMVTVSSRTGGGGSGGGGSGGGGSKLEVQLVETGGGLIQPGGSLRLSCAASGFTVSDNYMTWVRQAPGKGLEWVSVIFSGGNTYYADSVKGRFTISRDNAKNTLYLQMNSLRAEDTALYYCARRNYDDTRGTDVFDIWGQGTMVTVSSASEPKSSDKTHTCPPCPAPEAAGGPSVFLFPPKPKDTLMISRTPEVTCVVVDVSHEDPEVKFNWYVDGVEVHNAKTKPREEQYNSTYRVVSVLTVLHQDWLNGKEYKCKVSNKALGAPIEKTISKAKGQPREPQVCTLPPSREEMTKNQVSLSCAVKGFYPSDIAVEWESNGQPENNYKTTPPVLDSDGSFFLVSKLTVDKSRWQQGNVFSCSVMHEALHNHYTQKSLSLSPGK
# B2: PR002895 (bispecific antibody, human IgG1, lambda, L234A L235A)
# light: B1 light
# heavy: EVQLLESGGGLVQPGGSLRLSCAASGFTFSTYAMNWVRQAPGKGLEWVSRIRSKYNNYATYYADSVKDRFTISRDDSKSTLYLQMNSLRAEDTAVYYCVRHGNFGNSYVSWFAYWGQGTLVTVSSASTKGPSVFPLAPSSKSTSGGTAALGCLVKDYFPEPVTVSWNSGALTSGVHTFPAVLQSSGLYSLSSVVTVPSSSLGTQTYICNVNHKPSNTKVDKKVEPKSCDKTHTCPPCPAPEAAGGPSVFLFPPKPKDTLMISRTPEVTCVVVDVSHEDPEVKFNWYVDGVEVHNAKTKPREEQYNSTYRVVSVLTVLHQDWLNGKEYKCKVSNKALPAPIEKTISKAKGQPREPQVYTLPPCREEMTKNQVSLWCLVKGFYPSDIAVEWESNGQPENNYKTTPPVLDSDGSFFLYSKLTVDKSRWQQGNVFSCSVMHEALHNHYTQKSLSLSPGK
# chain: EVQLVETGGGLIQPGGSLRLSCAASGFTVSDNYMTWVRQAPGKGLEWVSVIFSGGNTYYADSVKGRFTISRDNAKNTLYLQMNSLRAEDTALYYCARRNYDDTRGTDVFDIWGQGTMVTVSSGGGGSGGGGSGGGGSEVQLVETGGGLIQPGGSLRLSCAASGFTVSDNYMTWVRQAPGKGLEWVSVIFSGGNTYYADSVKGRFTISRDNAKNTLYLQMNSLRAEDTALYYCARRNYDDTRGTDVFDIWGQGTMVTVSSASEPKSSDKTHTCPPCPAPEAAGGPSVFLFPPKPKDTLMISRTPEVTCVVVDVSHEDPEVKFNWYVDGVEVHNAKTKPREEQYNSTYRVVSVLTVLHQDWLNGKEYKCKVSNKALPAPIEKTISKAKGQPREPQVCTLPPSREEMTKNQVSLSCAVKGFYPSDIAVEWESNGQPENNYKTTPPVLDSDGSFFLVSKLTVDKSRWQQGNVFSCSVMHEALHNHYTQKSLSLSPGK
# B3: PR003178 (bispecific antibody, human IgG1, lambda, L234A L235A)
# light: B1 light
# heavy: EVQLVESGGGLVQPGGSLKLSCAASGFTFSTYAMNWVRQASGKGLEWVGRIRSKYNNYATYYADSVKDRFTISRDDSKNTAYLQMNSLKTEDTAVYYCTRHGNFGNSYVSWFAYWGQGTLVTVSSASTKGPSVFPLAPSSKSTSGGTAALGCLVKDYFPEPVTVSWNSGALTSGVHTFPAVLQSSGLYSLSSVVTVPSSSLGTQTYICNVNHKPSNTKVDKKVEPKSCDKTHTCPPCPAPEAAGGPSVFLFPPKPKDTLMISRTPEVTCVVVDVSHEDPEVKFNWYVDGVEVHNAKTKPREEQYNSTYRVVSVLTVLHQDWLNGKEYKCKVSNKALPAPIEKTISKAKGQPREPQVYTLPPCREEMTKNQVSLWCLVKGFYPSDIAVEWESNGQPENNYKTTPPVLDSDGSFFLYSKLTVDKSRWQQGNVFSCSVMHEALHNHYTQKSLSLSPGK
# chain: B2 chain
# B4: PR002953 (bispecific antibody, human IgG1, lambda, L234A L235A)
# light: B1 light
# heavy: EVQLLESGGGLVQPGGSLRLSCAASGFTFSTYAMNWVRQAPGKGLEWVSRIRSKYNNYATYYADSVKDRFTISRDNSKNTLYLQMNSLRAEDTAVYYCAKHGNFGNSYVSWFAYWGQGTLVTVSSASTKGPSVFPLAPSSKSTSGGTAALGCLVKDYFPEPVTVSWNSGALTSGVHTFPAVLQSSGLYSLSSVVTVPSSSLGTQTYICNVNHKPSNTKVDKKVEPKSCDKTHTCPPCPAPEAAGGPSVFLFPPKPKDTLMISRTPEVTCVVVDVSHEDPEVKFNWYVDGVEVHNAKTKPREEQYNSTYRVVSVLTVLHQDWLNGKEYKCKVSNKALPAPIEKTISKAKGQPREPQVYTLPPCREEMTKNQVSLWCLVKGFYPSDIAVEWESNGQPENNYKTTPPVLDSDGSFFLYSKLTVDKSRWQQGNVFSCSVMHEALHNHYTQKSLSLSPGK
# chain: B2 chain
# B5: PR000070, anti-PD-L1 91G3H5H3, hIgG1(N297A) (antibody, V domains shown)
# VH: EVQLVESGGGLVQPGGSLRLSCAASGFTFSSYWMSWVRQAPGKGLEWVANIKQDGSEKYYVDSVKGRFTISRDNAKNSLYLQMNSLRAEDTAVYYCARDRAVAGAFDIWGQGTMVTVSS
# VL: DIQMTQSPSTLSASVGDRVTVTCRASQSIYIWLAWYQQKPGKAPNLLIYKASSLETGVPSRFSGSGSGTEFTLTISSLQPDDFATYYCQQYYGSSRTFGQGTKVEIKR
# B6: PR000403 (bispecific antibody, human IgG1, kappa, L234A L235A)
# chain 1: EVQLVESGGGLVQPGGSLRLSCAASGFTFSSYWMSWVRQAPGKGLEWVANIKQEGSEKYYVDSVKGRFTISRDNAKNSLYLQMNSLRAEDTAVYYCARDRAVAGAFDIWGQGTMVTVSSASTKGPSVFPLAPSSKSTSGGTAALGCLVKDYFPEPVTVSWNSGALTSGVHTFPAVLQSSGLYSLSSVVTVPSSSLGTQTYICNVNHKPSNTKVDKKVEPKSC
# chain 2: DIQMTQSPSTLSASVGDRVTVTCRASQSIYIWLAWYQQKPGKAPNLLIYKASSLETGVPSRFSGSGSGTEFTLTISSLQPDDFATYYCQQYYGSSRTFGQGTKVEIKRTVAAPSVFIFPPSDEQLKSGTASVVCLLNNFYPREAKVQWKVDNALQSGNSQESVTEQDSKDSTYSLSSTLTLSKADYEKHKVYACEVTHQGLSSPVTKSFNRGECEVQLVESGGGLIQPGGSLRLSCAVSGFTVSKNYMSWVRQAPGKGLEWVSVVYSGGSKTYADSVKGRFTISRDNSKNTLYLQMNSLRAEDTAVYYCARAVPHSPSSFDIWGQGTMVTVSSEPKSCDKTHTCPPCPAPEAAGGPSVFLFPPKPKDTLMISRTPEVTCVVVDVSHEDPEVKFNWYVDGVEVHNAKTKPREEQYNSTYRVVSVLTVLHQDWLNGKEYKCKVSNKALGAPIEKTISKAKGQPREPQVYTLPPSREEMTKNQVSLTCLVKGFYPSDIAVEWESNGQPENNYKTTPPVLDSDGSFFLYSKLTVDKSRWQQGNVFSCSVMHEALHNHYTQKSLSLSPGK
# notes: PD-L1×CTLA4, structure 1 Fab(CL)-VH-Fc
# B7: PR002199 (bispecific antibody, human IgG1, kappa, L234A L235A)
# chain 1: not shown
# chain 2: EVQLVESGGGLVQPGRSLRLSCAASGFTFDDYAMHWVRQAPGKGLEWVSGISWNSGSIGYADSVKGRFTISRDNAKNSLYLQMNSLRAEDTALYYCAKDSRGYGDYRLGGAYWGQGTLVTVSSASTKGPSVFPLAPSSKSTSGGTAALGCLVKDYFPEPVTVSWNSGALTSGVHTFPAVLQSSGLYSLSSVVTVPSSSLGTQTYICNVNHKPSNTKVDKKVEPKSCDKTHTCPPCPAPEAAGGPSVFLFPPKPKDTLMISRTPEVTCVVVDVSHEDPEVKFNWYVDGVEVHNAKTKPREEQYNSTYRVVSVLTVLHQDWLNGKEYKCKVSNKALGAPIEKTISKAKGQPREPQVYTLPPCREEMTKNQVSLWCLVKGFYPSDIAVEWESNGQPENNYKTTPPVLDSDGSFFLYSKLTVDKSRWQQGNVFSCSVMHEALHNHYTQKSLSLSPGK
# chain 3: EVQLLESGGGLVQPGGSLRLSCAASGFTVSSYGMSWVRQAPGKGPEWVSGIRGSDGSTYYADSVKGRFTISRDNSKNTLYLQMNSLRAEDTAVYYCAKQGENDGPFDHRGQGTLVTVSSGGGGSEVQLLESGGGLVQPGGSLRLSCAASGFTVSSYGMSWVRQAPGKGPEWVSGIRGSDGSTYYADSVKGRFTISRDNSKNTLYLQMNSLRAEDTAVYYCAKQGENDGPFDHRGQGTLVTVSSASEPKSSDKTHTCPPCPAPEAAGGPSVFLFPPKPKDTLMISRTPEVTCVVVDVSHEDPEVKFNWYVDGVEVHNAKTKPREEQYNSTYRVVSVLTVLHQDWLNGKEYKCKVSNKALGAPIEKTISKAKGQPREPQVCTLPPSREEMTKNQVSLSCAVKGFYPSDIAVEWESNGQPENNYKTTPPVLDSDGSFFLVSKLTVDKSRWQQGNVFSCSVMHEALHNHYTQKSLSLSPGK
# notes: also called Positive control 2
# Experiments:
# human BCMA [1] = target: T1, human BCMA (human, UniProt Q02223 1-184); experiment: FACS on HEK293T/hBCMA cells, Experiment 3
# T1 construct: whole, on cells; also called hBCMA; TNFRSF17
# T1 sequence (looked up): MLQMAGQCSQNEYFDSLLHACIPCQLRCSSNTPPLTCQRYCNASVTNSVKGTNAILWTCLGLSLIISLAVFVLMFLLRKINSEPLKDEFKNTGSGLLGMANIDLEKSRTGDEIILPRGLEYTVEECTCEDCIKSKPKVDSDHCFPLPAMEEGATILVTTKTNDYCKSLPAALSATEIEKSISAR
# human BCMA [2] = target: T1, human BCMA; experiment: FACS on HEK293T/hBCMA cells, Experiment 2
# human BCMA [3] = target: T1, human BCMA; experiment: FACS on NCI-H929 cells
# cynomolgus monkey BCMA = target: T2, cynomolgus monkey BCMA (cynomolgus monkey, UniProt A0A2K5UD97 1-183); experiment: FACS on HEK293T/cyno BCMA cells
# T2 construct: whole, on cells; also called cyno BCMA
# [4] = target: T3, human PD-L1 on cells (CHO-K1/hPDL1; MDA-MB-231) (human, UniProt Q9NZQ7 19-290); experiment: competition FACS: biotinylated PD-1 to CHO-K1/hPDL1 cells (Experiment 1)
# T3 construct: whole, on cells
# [5] = target: T4, human PD-L1-His protein (ACRO Biosystems, #PD1-H5229) (human, UniProt Q9NZQ7 19-238); experiment: ELISA, coated hPD-L1-His
# T4 construct: extracellular domain; bought; also called hPDL1-His; human PD-L1 extracellular domain recombinant protein
# [6] = target: T3, human PD-L1 on cells (CHO-K1/hPDL1; …); experiment: FACS, CHO-K1/hPDL1 cells (Experiment 1)
# [7] = target: T3, human PD-L1 on cells (CHO-K1/hPDL1; …); experiment: competition FACS: biotinylated PD-1 to CHO-K1/hPDL1 cells (Experiment 2)
# [8] = target: T5, human CTLA4 on cells (CHO-K1/hCTLA4; HEK293/hCTLA4; 293F-hCTLA4) (human, UniProt P16410 36-223); experiment: FACS, HEK293/hCTLA4 cells
# T5 construct: whole, on cells
# [9] = target: T3, human PD-L1 on cells (CHO-K1/hPDL1; …); experiment: FACS, CHO-K1/hPDL1 cells (Experiment 2)
# [10] = target: T5, human CTLA4 on cells (CHO-K1/hCTLA4; …); experiment: FACS, CHO-K1/hCTLA4 cells (Test 2)
# T5 sequence (P16410 36-223): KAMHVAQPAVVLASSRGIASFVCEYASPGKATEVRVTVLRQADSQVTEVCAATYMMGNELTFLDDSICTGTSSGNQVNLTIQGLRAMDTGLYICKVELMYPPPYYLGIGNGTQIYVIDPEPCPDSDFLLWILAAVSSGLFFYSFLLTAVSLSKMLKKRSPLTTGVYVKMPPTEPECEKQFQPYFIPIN
# T3 sequence (Q9NZQ7 19-290): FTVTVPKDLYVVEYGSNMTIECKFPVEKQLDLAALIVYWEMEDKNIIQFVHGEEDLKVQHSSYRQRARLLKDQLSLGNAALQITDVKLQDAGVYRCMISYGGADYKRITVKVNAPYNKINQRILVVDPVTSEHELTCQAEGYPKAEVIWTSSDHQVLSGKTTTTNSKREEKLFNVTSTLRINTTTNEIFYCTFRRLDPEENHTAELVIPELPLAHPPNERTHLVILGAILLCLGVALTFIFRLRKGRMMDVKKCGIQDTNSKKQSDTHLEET
# T4 sequence (Q9NZQ7 19-238): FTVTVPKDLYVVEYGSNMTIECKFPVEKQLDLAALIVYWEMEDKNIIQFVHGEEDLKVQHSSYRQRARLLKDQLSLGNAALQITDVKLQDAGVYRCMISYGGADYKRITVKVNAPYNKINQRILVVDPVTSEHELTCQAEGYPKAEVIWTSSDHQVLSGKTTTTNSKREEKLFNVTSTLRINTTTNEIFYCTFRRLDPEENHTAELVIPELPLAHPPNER
# T2 sequence (A0A2K5UD97 entry or part of it): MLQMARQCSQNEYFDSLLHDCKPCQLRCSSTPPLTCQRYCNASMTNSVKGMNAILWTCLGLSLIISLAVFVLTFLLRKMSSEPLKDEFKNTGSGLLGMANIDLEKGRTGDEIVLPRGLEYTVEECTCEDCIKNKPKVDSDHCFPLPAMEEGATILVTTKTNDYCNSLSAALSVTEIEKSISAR
Binder,EC50 (human BCMA [1]) [nM],Maximum MFI (human BCMA [1]),EC50 (human BCMA [2]) [nM],Maximum MFI (human BCMA [2]),EC50 (human BCMA [3]),also measured
B1,0.259,100000,0.355,15000,1.73 nM and 1.34 nM,–
B2,0.183,93200,0.385,14000,1.53 nM and 2.01 nM,–
B3,0.188,99300,–,–,1.23 nM,Maximum MFI (cynomolgus monkey BCMA): 115000; Maximum MFI (human BCMA [3]): 15600
B4,0.226,91600,–,25200,1.34 nM and 2.91 nM,–
B5,–,–,–,–,–,IC50 [4]: 0.725 nM; Maximum inhibition rate (%) [4]: 96.8%; EC50 [5]: 0.146 nM; Maximum OD450 [5]: 3.45 OD450; EC50 [6]: 0.747 nM; Maximum MFI [6]: 22700 MFI
B6,–,–,–,–,–,IC50 [7]: 0.42 nM; Maximum inhibition rate (%) [7]: 81.4%; EC50 [8]: 16.3 nM; Maximum MFI [8]: 1410 MFI; EC50 [9]: 0.73 nM; Maximum MFI [9]: 8090 MFI; EC50 [10]: 20.5 nM; Maximum MFI [10]: 343 MFI
B7,0.602,117000,1.13,17000,4.29 nM,Maximum MFI (human BCMA [3]): 88200
